In the experiment the target is Recombinant human PDK2 (pyruvate dehydrogenase kinase 2) (human). In words: dynamic light scattering.

The values that follow come from paper PMC5553292.

By stoichiometry N is commonly meant the number of molecules, sites or subunits per partner or assembly. Take “Recombinant human PDK2 (pyruvate dehydrogenase kinase 2) (enzyme)”: the stoichiometry N was 2.
